Source: publication doi:10.1101/318345v1

Legend:
[1] = substrate: O=C(O)C[C@H](C(=O)O)[C@@H](O)C(=O)O; assay: purified protein; type: biochemical, Pseudomonas aeruginosa; conditions: 200 μM NADP+, 5 mM MgCl2, pH 7.5, 37 °C
[2] = substrate: NC(=O)c1ccc[n+]([C@@H]2O[C@H](COP(=O)(O)OP(=O)(O)OC[C@H]3O[C@@H](n4cnc5c(N)ncnc54)[C@H](OP(=O)(O)O)[C@@H]3O)[C@@H](O)[C@H]2O)c1; assay: purified protein; type: biochemical, Pseudomonas aeruginosa; conditions: 200 μM isocitrate, 5 mM MgCl2, pH 7.5, 37 °C

| Protein | Km [1] [µM] | kcat [1] [s⁻¹] | Km [2] [µM] | kcat [2] [s⁻¹] |
| --- | --- | --- | --- | --- |
| IDH (Pseudomonas aeruginosa PAO1) (protein) MSIRSKITYTFTDEAPALATYSLLPIVKAFAASAGIDVETSDISLAGRILANFADRLEADQRIEDDLARLAVLATSPDANIIKLPNISASVPQLKGAIAELQGLGYKVPDFPEDPQTDEEKEVRARYAKILGSAVNPVLREGNSDRRAPAAVKAYARKHPHSMGKWSMASRSHADYMRGGDFFSSEQSITMAKAGDVRIEFVGKDGKVEVKKQLSLQEGEVLDSMFMSCGKLRDFFEKTLQDCKETGVMWSLHVKATMMKISHPIVFGHAVSVYYKDVFDKWGQLFEELGVNPNNGISSVYDKIKSLPASQQEEILHDIHEVYSHRPEMAMVDSVKGITNLHIPSDVIVDASMPAMIRNSGQMWGKDGKQKDTKAVMPESTYARIYQEMINFCKTNGAFDPTTMGSVPNVGLMAQKAEEYGSHDKTFEMTADGTMRVVLADGSVLMQHKVETGDIWRACQTKDAPIRDWVKLAVTRARQSDTPAIFWLDPERAHDRELRKKVELYLKDHDLTGLDISIMGYNEAIRVSMERLIRGKDTISVTGNVLRDYLTDLFPIMELGTSAKMLSIVPLMAGGGMYETGAGGSAPKHVQQLVEENYLRWDSLGEFLALAVSLEETGIKTGNAKAKLLGKALDEATGKLLDNNKSPSRKVGDIDNRGSHFYLAMYWAQALAAQNEDAELKAHFAPLAKALTEQEATIVAELNAVQGKPAEIGGYYRSNPELTSKVMRPSATFNAAIDSLA | 17.7 | 183.7 |  |  |
| ICD (Pseudomonas aeruginosa PAO1) (protein) MGYQKIQVPATGDKITVNADMSLSVPKNPIIPFIEGDGIGVDISPVMIKVVDAAVEKAYKGERKIAWMEVYAGEKATQVYDQDTWLPQETLDAVRDYVVSIKGPLTTPVGGGIRSLNVALRQQLDLYVCQRPVRWFEGVPSPVKKPGDVDMVIFRENSEDIYAGVEWKAGSPEAEKVIKFLTEEMGVKKIRFTENCGIGIKPVSQEGTKRLVRKALQYAVDNDRSSVTLVHKGNIMKFTEGAFKDWGYEVARDEFGAELLDGGPWMQFKNPKTGKNVVVKDVIADAMLQQILLRPAEYDVIATLNLNGDYLSDALAAEVGGIGIAPGANLSDSVAMFEATHGTAPKYAGQDKVNPGSLILSAEMMLRHMGWTEAADLIIKGTNGAIAAKTVTYDFERLMDGATLLSCSEFGDAMIAKM | 25.6 | 608.8 | 32.3 | 684.9 |
